In the supplement of paper PMC9732359:
± gives the uncertainty stated by the source.

Test: protein stability index of a GFP-peptide fusion (yeast GPS) (PSI 1-4); higher = more stable; sorted into four equal gates, so the index is relative within each strain
In short: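 The protein stability index combines read frequencies across sorting gates, each weighted by its gate number and then summed. To obtain those frequencies, a pooled yeast library of GFP fusions to tiled 17-residue yeast protein peptides, on a plasmid also expressing Cherry, was grown to mid-log phase in leucine-free medium. The cells were sorted into four equal gates by GFP/Cherry ratio before plasmid amplification by PCR and Illumina sequencing.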

Sequence | protein stability index (doa10∆) | protein stability index (pdr5∆) | protein stability index (san1∆) | protein stability index (ubr1∆)
TKTEALLSDVVSTSSGA [YJL041W/NSP1] | 2.73 ± 0.13 | 3.1 ± 0.2 | 2.75 ± 0.15 | 
LLALRERRMQVTAEDFK [RPT2] | 2.79 ± 0.13 | 2.8 ± 0.17 | 2.89 ± 0.11 | 
VIGGNSLFHIVVDTEET [SMC3] | 2.73 ± 0.099 | 2.78 ± 0.091 | 2.54 ± 0.076 | 2.53 ± 0.06
SADREIQRTLMELLTQM [RPT4] | 2.93 ± 0.12 | 3.16 ± 0.1 | 3.27 ± 0.087 | 3.02 ± 0.095
ASLNALKESIKNSTSSM [RPN1] | 3.07 ± 0.087 | 3.25 ± 0.098 | 3.06 ± 0.063 | 3.16 ± 0.076
LRKQKDSSTTSSNSQQS [ITC1] | 3.12 ± 0.059 | 3.04 ± 0.066 | 3.07 ± 0.06 | 3.19 ± 0.059
SVKPHVVEPEHMADAKI [SIR4] | 2.68 ± 0.14 | 2.92 ± 0.14 | 3.1 ± 0.1 | 3 ± 0.17
GITAVHVKIRATGGTRT [RPS14B] | 1.47 ± 0.052 | 1.61 ± 0.041 | 1.57 ± 0.11 | 1.24 ± 0.047
ALPDAVTIIEPKEEEPI [RPS3] | 2.93 ± 0.059 | 2.99 ± 0.065 | 3.06 ± 0.061 | 3.04 ± 0.058
LRRSGQIANDPSKKRRR [SMD1] | 2.58 ± 0.078 | 3.01 ± 0.15 | 2.73 ± 0.086 | 3.23 ± 0.1
NIPFWKHVGFELLSMGN [SRP72] | 1.82 ± 0.1 | 1.58 ± 0.085 | 2.01 ± 0.16 | 1.27 ± 0.079
IGQIIFSVRTKDSNKDV [RPL10] | 2.18 ± 0.05 | 2.49 ± 0.048 | 2.21 ± 0.065 | 2.79 ± 0.051
FMEIVLEYNVALNDVYL [YML031W/NDC1] | 2.47 ± 0.09 | 2.3 ± 0.084 | 2.22 ± 0.11 | 1.66 ± 0.064
MSVSDNDQALIKVLLRQ [RET1] | 2.48 ± 0.052 | 2.62 ± 0.069 | 2.71 ± 0.067 | 2.6 ± 0.053
NFLVFQGDVEQIAAQSP [SMC1] | 2.49 ± 0.1 | 2.51 ± 0.092 | 2.68 ± 0.14 | 2.61 ± 0.094
SVPLVIGQFLEPIDQNT [RPT3] | 1.88 ± 0.11 | 2.77 ± 0.095 | 2.95 ± 0.13 | 2.71 ± 0.067
RIGVLQARMMQQQSADH [NSL1] | 2.88 ± 0.062 | 3.06 ± 0.057 | 3.06 ± 0.046 | 2.96 ± 0.042
ETEKFALERNWPIVNSK [RPN12] | 3.19 ± 0.095 | 3.25 ± 0.12 | 3.13 ± 0.069 | 3.11 ± 0.086
KSFISKLLGIGDIESLF [SRP54] | 1.56 ± 0.061 | 1.82 ± 0.077 | 2.2 ± 0.12 | 2.1 ± 0.12
LFQVESAPKISSEIDRE [SIR4] | 2.35 ± 0.05 | 2.61 ± 0.062 | 2.37 ± 0.053 | 2.42 ± 0.045
LKHYNGYDINYISKIGE [SWI1] | 2.81 ± 0.056 | 2.71 ± 0.049 | 2.07 ± 0.066 | 2.62 ± 0.053
ARKHKLKTLVQGPRSYF [RPS27A] | 3.15 ± 0.14 | 3.34 ± 0.19 | 2.27 ± 0.14 | 2.72 ± 0.19
YSLIRETNGYDPFSIYG [SNF5] | 1.23 ± 0.056 | 1.31 ± 0.088 | 1.15 ± 0.18 | 1.06 ± 0.084
KVSGVSLLALWKEKKEK [RPS23A] | 2.55 ± 0.22 | 1.59 ± 0.1 | 1.78 ± 0.1 | 1.77 ± 0.11
ILQILNLMILNTKVPVD [YML103C/NUP188] | 1.34 ± 0.1 | 1.51 ± 0.07 | 1.12 ± 0.29 | 1.34 ± 0.1
VKGTNISEKDLVPKRCL [RPO31] | 2.63 ± 0.12 | 3.39 ± 0.13 | 3.42 ± 0.082 | 3.12 ± 0.09

Sequence | protein stability index (doa10∆) | protein stability index (pdr5∆) | protein stability index (san1∆) | protein stability index (ubr1∆)
TSHYQNYHPNASITPYK [RPN4] | 2.84 ± 0.081 | 3.11 ± 0.074 | 2.94 ± 0.055 | 2.89 ± 0.063
IIEQLSIAAERYDYSDE [YCG1] | 2.51 ± 0.052 | 2.78 ± 0.063 | 2.22 ± 0.06 | 2.59 ± 0.032
VNDTVKIDLASGKITDF [RPS4A] | 3.07 ± 0.12 | 3.17 ± 0.1 | 3.26 ± 0.12 | 2.71 ± 0.15
GSSALADNKEDVKKPFS [YLR335W/NUP2] | 3.48 ± 0.099 | 3.16 ± 0.067 | 3.06 ± 0.06 | 3.21 ± 0.062
LKLPLEINYAFSMDEEF [SIR3] | 2.13 ± 0.07 | 2.18 ± 0.058 | 2.73 ± 0.056 | 2.2 ± 0.048
QPYEDRPFEGLFVISTE [RRP45] | 2.96 ± 0.052 | 3.12 ± 0.048 | 3.11 ± 0.048 | 3.05 ± 0.038
RKDKDAKFRLILIESRI [RPS13] | 1.52 ± 0.094 | 1.82 ± 0.12 | 1.9 ± 0.11 | 2.57 ± 0.11
DNSNVMTVKLESITYQK [RGR1] | 2.88 ± 0.096 | 2.43 ± 0.1 | 3.1 ± 0.12 | 2.93 ± 0.1
DSVATVIEVIETKWDDA [YJR042W/NUP85] | 2.32 ± 0.24 | 2.64 ± 0.28 | 2.16 ± 0.17 | 2.1 ± 0.27
TPAPKISYKKGAASNRT [RPL36A] | 2.98 ± 0.072 | 3.22 ± 0.06 | 3.17 ± 0.058 | 3.1 ± 0.042
QVGERIKQTFKNDLFVI [RPO21] | 2.38 ± 0.066 | 2.36 ± 0.07 | 2.56 ± 0.06 | 2.49 ± 0.064
SQCRLHELREKERISVA [PRE2] | 2.25 ± 0.11 | 2.59 ± 0.097 | 2.87 ± 0.097 | 1.67 ± 0.04
QFDIQSPLYMDTETFDT [YML103C/NUP188] | 3.11 ± 0.093 | 2.88 ± 0.064 | 3.02 ± 0.063 | 3.28 ± 0.06
TLEQKVNLENPIPIAVL [FAS1] | 1.35 ± 0.048 | 1.4 ± 0.041 | 1.57 ± 0.095 | 1.39 ± 0.028
VTFSPTGRLFQVEYALE [PRE5] | 3.28 ± 0.099 | 2.77 ± 0.12 | 2.93 ± 0.23 | 2.79 ± 0.062
KKIIKCDEHMGLSLAGL [PRE5] | 2.94 ± 0.079 | 3.2 ± 0.076 | 3.15 ± 0.075 | 2.94 ± 0.076
EAGLQLCRQGHNMLNLL [PRP8] | 2.24 ± 0.079 | 2.29 ± 0.12 | 2.07 ± 0.14 | 1.99 ± 0.06
YMEPFDLDLNEQVRKMY [NSL1] | 2.88 ± 0.1 | 2.36 ± 0.079 | 3.1 ± 0.068 | 2.46 ± 0.052
NEESTNERLEINQEKPV [SIR4] | 3.31 ± 0.18 | 3.32 ± 0.13 | 3.37 ± 0.092 | 3.36 ± 0.1
SSTITGDVVLAAAYSHE [RPL5] | 2.32 ± 0.056 | 2.56 ± 0.06 | 2.61 ± 0.057 | 2.31 ± 0.058
HETLARSSEEINSDNQN [RPN3] | 3.15 ± 0.26 |  |  | 3.16 ± 0.19
SNIPRGSVIQTHIAESA [MCD1] | 2.81 ± 0.1 | 2.88 ± 0.084 | 2.62 ± 0.09 | 2.91 ± 0.051
GVLYQGNIQISEYNFLE [DIS3] |  | 3.05 ± 0.16 | 2.6 ± 0.18 | 2.96 ± 0.28
KYKQLLLKDDTYQLCVR [RPN3] | 1.46 ± 0.073 | 1.78 ± 0.29 |  | 1.6 ± 0.18
RIHVNPSYYGVRDTSPH [BRR2] | 1.96 ± 0.1 | 1.93 ± 0.072 | 1.74 ± 0.085 | 1.9 ± 0.058
PEYLAMYGLTMEWPKDM [ITC1] | 2.45 ± 0.074 | 2.34 ± 0.11 | 2.23 ± 0.14 | 2.14 ± 0.072
